In doi:10.1101/385401 (bioRxiv, 2018):
Read-outs that look alike come from different tables or passages of the source.

Key:
[1] = molecular target: the molecule itself; test: crystal structure
[2] = molecular target: the molecule itself

| Protein | stoichiometry N [1] | stoichiometry N [2] |
| --- | --- | --- |
| Escherichia coli (Ec) dGTPase, wild type (enzyme, UniProt P15723 1-505, looked up) MAQIDFRKKINWHRRYRSPQGVKTEHEILRIFESDRGRIINSPAIRRLQQKTQVFPLERNAAVRTRLTHSMEVQQVGRYIAKEILSRLKELKLLEAYGLDELTGPFESIVEMSCLMHDIGNPPFGHFGEAAINDWFRQRLHPEDAESQPLTDDRCSVAALRLRDGEEPLNELRRKIRQDLCHFEGNAQGIRLVHTLMRMNLTWAQVGGILKYTRPAWWRGETPETHHYLMKKPGYYLSEEAYIARLRKELNLALYSRFPLTWIMEAADDISYCVADLEDAVEKRIFTVEQLYHHLHEAWGQHEKGSLFSLVVENAWEKSRSNSLSRSTEDQFFMYLRVNTLNKLVPYAAQRFIDNLPAIFAGTFNHALLEDASECSDLLKLYKNVAVKHVFSHPDVERLELQGYRVISGLLEIYRPLLSLSLSDFTELVEKERVKRFPIESRLFHKLSTRHRLAYVEAVSKLPSDSPEFPLWEYYYRCRLLQDYISGMTDLYAWDEYRRLMAVEQ | 6 | – |
| selenium methionine labelled Ec-dGTPase (enzyme, Escherichia coli, UniProt P15723 1-505, looked up, selenium methionine labelled) MAQIDFRKKINWHRRYRSPQGVKTEHEILRIFESDRGRIINSPAIRRLQQKTQVFPLERNAAVRTRLTHSMEVQQVGRYIAKEILSRLKELKLLEAYGLDELTGPFESIVEMSCLMHDIGNPPFGHFGEAAINDWFRQRLHPEDAESQPLTDDRCSVAALRLRDGEEPLNELRRKIRQDLCHFEGNAQGIRLVHTLMRMNLTWAQVGGILKYTRPAWWRGETPETHHYLMKKPGYYLSEEAYIARLRKELNLALYSRFPLTWIMEAADDISYCVADLEDAVEKRIFTVEQLYHHLHEAWGQHEKGSLFSLVVENAWEKSRSNSLSRSTEDQFFMYLRVNTLNKLVPYAAQRFIDNLPAIFAGTFNHALLEDASECSDLLKLYKNVAVKHVFSHPDVERLELQGYRVISGLLEIYRPLLSLSLSDFTELVEKERVKRFPIESRLFHKLSTRHRLAYVEAVSKLPSDSPEFPLWEYYYRCRLLQDYISGMTDLYAWDEYRRLMAVEQ | 6 | – |
| Ec-dGTPase H126A variant (enzyme, Escherichia coli, UniProt P15723 1-505, looked up) MAQIDFRKKINWHRRYRSPQGVKTEHEILRIFESDRGRIINSPAIRRLQQKTQVFPLERNAAVRTRLTHSMEVQQVGRYIAKEILSRLKELKLLEAYGLDELTGPFESIVEMSCLMHDIGNPPFGAFGEAAINDWFRQRLHPEDAESQPLTDDRCSVAALRLRDGEEPLNELRRKIRQDLCHFEGNAQGIRLVHTLMRMNLTWAQVGGILKYTRPAWWRGETPETHHYLMKKPGYYLSEEAYIARLRKELNLALYSRFPLTWIMEAADDISYCVADLEDAVEKRIFTVEQLYHHLHEAWGQHEKGSLFSLVVENAWEKSRSNSLSRSTEDQFFMYLRVNTLNKLVPYAAQRFIDNLPAIFAGTFNHALLEDASECSDLLKLYKNVAVKHVFSHPDVERLELQGYRVISGLLEIYRPLLSLSLSDFTELVEKERVKRFPIESRLFHKLSTRHRLAYVEAVSKLPSDSPEFPLWEYYYRCRLLQDYISGMTDLYAWDEYRRLMAVEQ | – | 6 |
| Ec-dGTPase E129A variant (enzyme, Escherichia coli, UniProt P15723 1-505, looked up) MAQIDFRKKINWHRRYRSPQGVKTEHEILRIFESDRGRIINSPAIRRLQQKTQVFPLERNAAVRTRLTHSMEVQQVGRYIAKEILSRLKELKLLEAYGLDELTGPFESIVEMSCLMHDIGNPPFGHFGAAAINDWFRQRLHPEDAESQPLTDDRCSVAALRLRDGEEPLNELRRKIRQDLCHFEGNAQGIRLVHTLMRMNLTWAQVGGILKYTRPAWWRGETPETHHYLMKKPGYYLSEEAYIARLRKELNLALYSRFPLTWIMEAADDISYCVADLEDAVEKRIFTVEQLYHHLHEAWGQHEKGSLFSLVVENAWEKSRSNSLSRSTEDQFFMYLRVNTLNKLVPYAAQRFIDNLPAIFAGTFNHALLEDASECSDLLKLYKNVAVKHVFSHPDVERLELQGYRVISGLLEIYRPLLSLSLSDFTELVEKERVKRFPIESRLFHKLSTRHRLAYVEAVSKLPSDSPEFPLWEYYYRCRLLQDYISGMTDLYAWDEYRRLMAVEQ | – | 6 |
| Ec-dGTPase Y272A variant (enzyme, Escherichia coli, UniProt P15723 1-505, looked up) MAQIDFRKKINWHRRYRSPQGVKTEHEILRIFESDRGRIINSPAIRRLQQKTQVFPLERNAAVRTRLTHSMEVQQVGRYIAKEILSRLKELKLLEAYGLDELTGPFESIVEMSCLMHDIGNPPFGHFGEAAINDWFRQRLHPEDAESQPLTDDRCSVAALRLRDGEEPLNELRRKIRQDLCHFEGNAQGIRLVHTLMRMNLTWAQVGGILKYTRPAWWRGETPETHHYLMKKPGYYLSEEAYIARLRKELNLALYSRFPLTWIMEAADDISACVADLEDAVEKRIFTVEQLYHHLHEAWGQHEKGSLFSLVVENAWEKSRSNSLSRSTEDQFFMYLRVNTLNKLVPYAAQRFIDNLPAIFAGTFNHALLEDASECSDLLKLYKNVAVKHVFSHPDVERLELQGYRVISGLLEIYRPLLSLSLSDFTELVEKERVKRFPIESRLFHKLSTRHRLAYVEAVSKLPSDSPEFPLWEYYYRCRLLQDYISGMTDLYAWDEYRRLMAVEQ | – | 6 |
